Here are results for two molecules from patent US8367815B2, “Modular polynucleotides for ligand-controlled regulatory systems” (California Institute of Technology, priority 2007, dated 2013).

Where “and” joins values, the source holds several entries; their conditions need not be identical. Identical values can stand only once. Like-named read-outs stand apart in the source and are kept apart here.

In one data set the test system is La protein. In words: qRT-PCR of La protein mRNA from transfected HEK293T tTA-d2EGFP cells. Format: cell-based. The protocol:
(A) qRT-PCR of La protein mRNA from HEK293T tTA-d2EGFP cells transfected in the presence (▪) or absence (□) of 1.5 mM theophylline. […] Error bars represent quadruplicate qRT-PCR measurements. (B) Curve fit to extrapolate empirical parameters C1-3. Dashed line marks knockdown achieved by base shRNA. (C) Model predictions for dynamic range using empirical parameter values for the GFP experiments along with fshRNA=0.6 and e=0.72 (gray curve) and extrapolated values from the La experiments (black curve). (D) Relationship between dynamic range (η) and the free energy difference. The dashed line represents the apparent increase in La mRNA levels upon theophylline addition observed for the base shRNA (shL).
To examine the generality of shRNA switch design and functionality, Applicants designed a set of shRNA switches targeting the endogenous La protein. Following selection of an shRNA sequence that yields moderate knockdown of La as ascertained by qRT-PCR, various switching strand sequences covering a range of ΔG values were combined with the smaller theophylline aptamer to yield six shRNA switches (L1-6). […] As observed for the GFP-targeting shRNA switches, use of the stems method provided a suitable correlation between basal levels and ΔGmethod. Supplying the model with fit values for C1-3 yielded a predicted dynamic range trend that closely matched the experimental data. […]
(In general: Real-time PCR tracks product formation cycle by cycle.)

Data set [1] is described as follows: In-line probing of S4t under varying theophylline concentrations. Format: binding. The text has this:
Individual bands from the in-line gel (FIG. 1B) were quantified and normalized to an adjacent constant region to remove bias from inconsistent well loading. C56 bands were normalized to U47 bands, while C74 bands were normalized to U100-G102 bands.
Applicants designed an initial shRNA switch (S1) to target EGFP and respond to theophylline by incorporating an EGFP-targeting guide strand and the theophylline aptamer (Zimmermann et al, 2000) into our switch platform (FIG. 1A). Applicants used in-line probing (Soukup and Breaker, 1999, incorporated herein by reference, and briefly described below) to assess the structural characteristics of a T7-transcribed variant similar to S1 (S4t; FIG. 1B). In-line probing provides structural information from the ligand dependence of spontaneous RNA cleavage. See Materials and Methods section below.
In-line probing. In-line probing was conducted as described previously (Soukup et al, 1999). After heating at 70° C. for 2 min followed by slow cooling to room temperature, 5′ radiolabeled RNAs ([…]) were incubated for 40 hours at 25° C. in varying amounts of theophylline with 50 mM Tris-HCl pH 8.5, 20 mM MgCl2. Reactions were terminated by adding an equal volume of loading buffer (10 M urea, 1.5 mM EDTA). The alkaline hydrolysis ladder was generated by incubating RNA in 50 mM NaHCO3/Na2CO3 pH 9.2, 1 mM EDTA for 6 min at 95° C. The G-specific cleavage ladder was generated by incubating RNA in 1 U RNase T1 (Ambion) with 20 mM sodium citrate pH 5.0, 1 mM EDTA, 7 M urea, and 3 μg yeast RNA for 25 min at 25° C. RNAs were resolved on an 8% denaturing polyacrylamide gel, dried for 90 min at 70° C., then visualized on an FX phosphorimager (BioRAD). Band quantification was performed using the Quantity One software package (BioRAD). To account for well loading variability, quantified band intensities were normalized to an adjacent band of similar intensity showing negligible theophylline dependence.

B1: shL: base shRNA targeting endogenous La protein; sequence in Table I (pCS1457) (nucleic acid)
chain: GGATCCGGCTTCCCAACGATGATGCAACTCCTCGAGTCTAGAGGAGTTGCATCAGTTGGGAAGCCTTTTTTGGAAGCTT
modifications: the letters are possibly those of the target site
Take B1: the “response of La mRNA levels to theophylline” value in the data set with La protein (1.5 mM theophylline) is given as “not observed”. In addition, the “fshRNA (La experiments)” value with La protein (relative knockdown of La by base shRNA) turned out to be 0.6.

B2: S4t: T7-transcribed variant similar to S1, used for in-line probing; SEQ ID NO: 51 (nucleic acid)
chain: GGGUCAGAUGAACUUCAGGGUCAGCUCGAGAUACCAGCAUCGACUCUUCGAUGCCCUUGGCAGCUCGGGCUGACCCUGCUAGAGCUGACCCUGAAUCAUCUGACCCUU
modifications: RNA, phosphodiester; further chemistry not fully specified
For the molecule B2, in data set [1] (equation (4) with ratio of apparent KD to KD of aptamer alone), the “KComp solved from in-line assay results” value was 0.06. In data set [1] (theophylline), the “ratio of the apparent KD to the KD of the aptamer alone” value is on record as approximately 17. Moreover, the Kd in data set [1] (theophylline, Michaelis-Menten fit, C56 bands normalized to U47, read-out: KD from in-line cleavage at C56) is 3.6 µM; in data set [1] (theophylline, Michaelis-Menten fit, C74 bands normalized to U100-G102, read-out: KD from in-line cleavage at C74), 6.8 µM; in data set [1] (theophylline, from quantifying cleavage products at two positions, read-out: apparent dissociation constant (KD)), ~5 µM and 5 µM.
